Assay results as given in article PMC2267006, “Methylated DNA Recognition during the Reversal of Epigenetic Silencing Is Regulated by Cysteine and Serine Residues in the Epstein-Barr Virus Lytic Switch Protein”.

B1: ZRE3 mC-2 (dsDNA)
DNA 1: GATCTATAGCATCGCGAATTTTGA
DNA 2: TCAAAATTCGCGATGCTATAGATC
modifications: single 5mC at C13 of strand 1 (position assigned from text)
B2: ZRE3 mC1' (dsDNA)
DNA 1: GATCTATAGCATCGCGAATTTTGA
DNA 2: TCAAAATTCGCGATGCTATAGATC
modifications: single 5mC at the complement of G14 (position assigned from text)

Assays:
Zta [1] = target: T1, Zta (Epstein-Barr virus, UniProt P03206 1-245); assay: competition; vs labelled ZIIIB; rank 2 of single-methyl sites; EMSA conditions not stated (cited to earlier papers); IVT proteins in rabbit reticulocyte lysate or wheat germ; competition with 6x-100x unlabelled DNA; conditions: protein: ivt; tags: [35S]Met-labelled in EMSA; chain copies: 2
T1 sequence (P03206 whole entry): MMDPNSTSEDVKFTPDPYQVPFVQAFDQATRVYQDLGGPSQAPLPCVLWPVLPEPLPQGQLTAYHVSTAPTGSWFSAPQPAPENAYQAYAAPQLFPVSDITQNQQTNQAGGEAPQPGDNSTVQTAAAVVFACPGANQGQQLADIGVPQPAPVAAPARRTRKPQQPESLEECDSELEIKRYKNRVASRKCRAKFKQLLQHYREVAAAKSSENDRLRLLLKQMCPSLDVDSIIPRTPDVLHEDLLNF

Zta [2] = target: T1, Zta; assay: competition; vs labelled ZIIIB; rank 1 of single-methyl sites; EMSA conditions not stated (cited to earlier papers); IVT proteins in rabbit reticulocyte lysate or wheat germ; competition with 6x-100x unlabelled DNA; conditions: protein: ivt; tags: [35S]Met-labelled in EMSA; chain copies: 2

Row | Binder | binding result (Zta [1]) | binding result (Zta [2])
1 | B1 | binds | –
2 | B2 | – | binds
